Source: US20090208489A1 (Takeda / Millennium, published 2009)
Values belong to the binder of their own block, whether it stands above or below them.

What was measured:
[1] = target: T1, OV064(32-282) expressed on transfected ES-2 ovarian carcinoma cells (human, UniProt Q7Z7D3 32-282); experiment: cell-based or functional assay
T1 sequence: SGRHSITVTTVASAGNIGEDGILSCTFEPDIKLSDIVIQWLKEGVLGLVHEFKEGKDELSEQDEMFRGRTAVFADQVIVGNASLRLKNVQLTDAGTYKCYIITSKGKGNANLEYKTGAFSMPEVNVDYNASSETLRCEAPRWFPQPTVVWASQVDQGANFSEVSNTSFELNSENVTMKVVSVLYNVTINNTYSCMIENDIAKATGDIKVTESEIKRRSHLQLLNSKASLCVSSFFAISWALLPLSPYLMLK

[2] = target: T1, OV064(32-282) expressed on transfected …; experiment: flow cytometry on OV064 expressing cells
Protocol: Analysis of mAb by flow cytometry. 50,000-100,000 test cells were prepared in 100 ul phosphate buffered saline+1% fetal bovine serum (PBSS). 50 ul of test reagent (either hybridoma supernatants, mouse serum or purified mAb) was added, and incubated 30-45 min on ice, then washed 2-3 times in PBSS. 50 ul of fluorescently labeled secondary antibody (Anti-Mouse IgG or Anti-Human IgG) was then added, and incubated 30-45 minutes on ice and washed. The cells were then resuspended in 300 ul of PBSS and analyzed by flow cytometer (FACSCalibur, Becton Dickinson) to assess amount of cell surface bound antibody.
Each human mAb (mAb sc77, mAb sc189, and mAb sc209) bound purified recombinant OV064-His fusion protein in ELISA analysis.

OV064 peptide 157-176 = target: T2, OV064 peptide 157-176 (human); experiment: peptide array (20-mer on nitrocellulose)
T2 construct: 20-mer synthetic peptide on nitrocellulose; also called OV064 AA 157-176
T2 peptide: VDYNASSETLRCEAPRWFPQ
Protocol: (§1) Epitope mapping. A variety of techniques are available to determine epitopes specific for any particular antibody. For example, constructs of OV064 truncations were generated in a pCMV3 vector. Constructs representing amino acids 32-282, 133-282, 167-282 and 183-282 of the OV064 protein sequence were generated as N-terminally FLAG tagged proteins that when transfected into 293 cells, will be expressed on the cell surface. OV064 specific antibodies sc077, sc189, sc209 an 8G5 were tested for binding to these expressed constructs by flow cytometry, as described above. Furthermore, epitopes were analyzed using the Novatope system (Novagen Inc). Briefly, OV064 cDNA was treated with DNAse and fragments representing 15-600 bp were cloned into a bacterial expression vector. Each mAb was tested against 2000 clones representing OV064 fragments and each positive clone was picked and sequenced. The minimal common sequence between each of these clones was designated as the epitope to which each antibody bound. Additionally, a synthetic peptide map was utilized for identifying anti-OV064 epitopes. Briefly, 20 amino acid peptides each overlapping with 15 amino acids were printed on a nitrocellulose filter and incubated with anti-OV064 specific antibodies. Peptide spots that reacted strongly with the OV064 specific antibodies indicated the presence of an OV064 epitope.
(§2) As described above in the methods, various approaches to determine epitope mapping of OV064 specific mAbs were used. […] The other methods confirmed the results depicted in Table 5.

OV064 peptide 162-181 = target: T3, OV064 peptide 162-181 (human); experiment: peptide array (20-mer on nitrocellulose)
T3 construct: 20-mer synthetic peptide on nitrocellulose; also called OV064 AA 162-181
T3 peptide: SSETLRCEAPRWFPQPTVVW
Protocol: as §1, §2

OV064 peptide 167-186 = target: T4, OV064 peptide 167-186 (human); experiment: peptide array (20-mer on nitrocellulose)
T4 construct: 20-mer synthetic peptide on nitrocellulose; also called OV064 AA 167-186
T4 peptide: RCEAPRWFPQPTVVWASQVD
Protocol: as §1, §2

OV064 peptide 172-191 = target: T5, OV064 peptide 172-191 (human); experiment: peptide array (20-mer on nitrocellulose)
T5 construct: 20-mer synthetic peptide on nitrocellulose; also called OV064 AA 172-191
T5 peptide: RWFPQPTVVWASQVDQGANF
Protocol: as §1, §2

OV064 peptide 177-196 = target: T6, OV064 peptide 177-196 (human); experiment: peptide array (20-mer on nitrocellulose)
T6 construct: 20-mer synthetic peptide on nitrocellulose; also called OV064 AA 177-196
T6 peptide: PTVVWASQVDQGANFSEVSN
Protocol: as §1, §2

OV064 peptide 237-256 = target: T7, OV064 peptide 237-256 (human); experiment: peptide array (20-mer on nitrocellulose)
T7 construct: 20-mer synthetic peptide on nitrocellulose; also called OV064 AA 237-256
T7 peptide: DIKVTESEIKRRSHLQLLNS
Protocol: as §1, §2

OV064 peptide 238-257 = target: T8, OV064 peptide 238-257 (human); experiment: peptide array (20-mer on nitrocellulose)
T8 construct: 20-mer synthetic peptide on nitrocellulose; also called OV064 AA 238-257
T8 peptide: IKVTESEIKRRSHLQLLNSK
Protocol: as §1, §2

ICA (EC50) [1]: 0.053 nM | FCM (MFI max) [2]: 700 MFI | binding result (OV064 peptide 157-176): binds | binding result (OV064 peptide 162-181): binds | binding result (OV064 peptide 167-186): binds | binding result (OV064 peptide 172-191): binds | binding result (OV064 peptide 177-196): binds
B1: human monoclonal antibody mAb sc209 (antibody, human IgG1, kappa, V domains shown)
VH: GVQLVESGGGLVQPGGSLRLSCAASGFTISRNDMHWVRQATGKGLEWVSAIGTGGDTYYPGSVKGRFTISRENAKNSLYLQMNSLRAGDTAVYYCARGHMTTFGGFIVIGNGMDVWGQGTTVTVSS
VL: not shown
notes: Human IgG1 kappa; also called Ov64sc209

ICA (EC50) [1]: 0.06 nM | FCM (MFI max) [2]: 820 MFI | binding result (OV064 peptide 237-256): binds | binding result (OV064 peptide 238-257): binds
B2: human monoclonal antibody mAb sc189 (antibody, human IgG1, kappa, V domains shown)
VH: EVQLVESGGGLVQPGGSLRLSCAASGFSFSSYDMHWVRQATGKGLEWVSGIDIAGDTYYPGSVKGRFTISRENAKNSLYLQMNSLRAGDTAVYYCARGDYDGTFDYWGQGTLVTVSS
VL: DIVMTQTPLSSPVTLGQPASISCRSSQSLVHSDGNTYLSWLQQRPGQPLRLLFYKISNRFSGVPDRFSGSGAGTDFTLIINRVEAEDVGVYYCMHATQFPITFGQGTRLEIKR
notes: Human IgG1 kappa; also called Ov64sc189

ICA (EC50) [1]: 0.123 nM | FCM (MFI max) [2]: 780 MFI | binding result (OV064 peptide 157-176): binds | binding result (OV064 peptide 162-181): binds | binding result (OV064 peptide 167-186): binds | binding result (OV064 peptide 172-191): binds
B3: human monoclonal antibody mAb sc77 (antibody, human IgG1, kappa, V domains shown)
VH: QVQLVESGGGVVQPGRSLRLSCAASGFTFSSYGMHWVRQAPGKGLEWVAVIWYDGNNKYYADSVKGRFTISRDNSKNTLYLQMNSLRAEDTAVYYCARTSGIAAFDYWGQGTLVTVSS
VL: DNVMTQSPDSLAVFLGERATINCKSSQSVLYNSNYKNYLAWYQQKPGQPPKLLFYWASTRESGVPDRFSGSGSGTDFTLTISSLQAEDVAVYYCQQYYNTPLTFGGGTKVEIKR
notes: Human IgG1 kappa; also called sc077; Ov64sc77
